From patent US12319739 (F STAR DELTA, dated 2025)
Changes are numbered by the printed parent chain.

Legend:
[1] = target: T1, hMSLN-His-Avi (human, UniProt Q13421 296-598, single biotin on the Avi tag in the biotinylated form); assay: ratio of SPR KDs
T1 construct: Monomeric; also called human MSLN-His-Avi; hMSLN-Avi-His

[2] = target: T2, human CD137 on primary human CD8+ T cells (human, UniProt Q07011 24-255); assay: cell-based or functional assay
[3] = target: T3, endogenous cell surface human MSLN (human, UniProt Q13421 296-598); assay: flow cytometry, NCI-H226 cells
T3 construct: whole, on cells; The cell line is named under assay; also called cell-surface MSLN on NCI-H226, OVCAR-3 and AsPC-1 cells

[4] = target: T4, cMSLN-His-Avi (cynomolgus, single biotin on the Avi tag in the biotinylated form); assay: SPR, mAb2 captured on Protein G, MSLN in solution
T4 construct: Monomeric; also called cyno MSLN-His-Avi; cMSLN-Avi-His
T4 chain: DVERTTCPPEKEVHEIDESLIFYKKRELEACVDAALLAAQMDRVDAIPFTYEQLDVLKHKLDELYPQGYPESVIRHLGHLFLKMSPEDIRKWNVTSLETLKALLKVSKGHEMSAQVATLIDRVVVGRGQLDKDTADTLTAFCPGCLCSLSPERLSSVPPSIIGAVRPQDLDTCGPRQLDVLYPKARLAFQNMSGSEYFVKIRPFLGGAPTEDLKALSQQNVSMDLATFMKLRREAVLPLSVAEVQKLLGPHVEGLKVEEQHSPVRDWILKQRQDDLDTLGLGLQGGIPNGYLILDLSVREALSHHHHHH
Protocol: (§1) The association time was 5 min and the dissociation time was 5 min. Running buffer was HBS-EP (GE Healthcare BR100188). Flow cells were regenerated by injecting Glycine-HCl pH2.1 at a flow rate of 30 μl/min for 15 seconds. The data was analysed as described in Example 7.1.

[5] = target: T3, endogenous cell surface human MSLN; assay: flow cytometry, NCI-H226 cells + 20 nM soluble MSLN
[6] = target: T1, hMSLN-His-Avi; assay: SPR, hMSLN-His-Avi immobilised ~100 RU, mAb2 injected
[7] = target: T4, cMSLN-His-Avi; assay: SPR, mAb2 captured on Protein G, cMSLN-His-Avi in solution
Protocol: as §1

[8] = target: T1, hMSLN-His-Avi; assay: SPR, mAb2 captured on Protein G, hMSLN-His-Avi in solution
Protocol: as §1

[9] = target: T5, mMSLN-His-Avi (mouse, UniProt Q61468 298-600, single biotin on the Avi tag in the biotinylated form); assay: ratio of SPR KDs
T5 construct: also called mouse MSLN-His-Avi
T5 sequence: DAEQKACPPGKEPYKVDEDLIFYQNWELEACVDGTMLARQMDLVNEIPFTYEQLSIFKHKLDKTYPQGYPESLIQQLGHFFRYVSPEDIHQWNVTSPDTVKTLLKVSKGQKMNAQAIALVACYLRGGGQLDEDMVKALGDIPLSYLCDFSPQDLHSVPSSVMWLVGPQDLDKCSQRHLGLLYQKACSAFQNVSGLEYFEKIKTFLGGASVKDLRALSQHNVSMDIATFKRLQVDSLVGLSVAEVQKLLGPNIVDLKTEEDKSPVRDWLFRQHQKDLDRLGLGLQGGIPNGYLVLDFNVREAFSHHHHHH
Protocol: (§2) To determine the affinity for soluble MSLN the mAb^2 was captured via an anti-human Fc. Briefly, 25 µg/ml anti-human IgG (Fc) antibody (GE Healthcare, Human Antibody Capture Kit, BR100839) was immobilised on a Biacore sensor chip CM5 (GE Healthcare, BR100530) achieving a final response of approximately 750 RU. The mAb^2 molecule, diluted in HBS-EP buffer (GE Healthcare, BR100188) at 50 nM, was injected individually at 30 µl/min to achieve a response of approximately 100 RU. The recombinant mMSLN-His-Avi antigen, diluted in HBS-EP buffer, was injected at a concentration range of 243 nM to 0.11 nM with 3-fold dilutions for 5 minutes at 70 µl/min and then allowed to dissociate in buffer for 5 minutes. Regeneration was achieved by injecting 3 M magnesium chloride (GE Healthcare, Human Antibody Capture Kit, BR100839) for 30 seconds at a rate of 30 µl/min.

[10] = target: T5, mMSLN-His-Avi; assay: SPR, mMSLN-His-Avi immobilised at 50 RU
[11] = target: T5, mMSLN-His-Avi; assay: SPR, mAb2 captured by anti-human Fc, mMSLN-His-Avi in solution
Protocol: as §2

[12] = target: T1, hMSLN-His-Avi; assay: ratio of SPR KDs; remark: listed apart in the source
[13] = target: T2, human CD137 on primary human CD8+ T …; assay: cell-based or functional assay; remark: listed apart in the source
[14] = target: T2, human CD137 on primary human CD8+ T …; assay: cell-based or functional assay; remark: listed apart in the source
[15] = target: T2, human CD137 on primary human CD8+ T …; assay: cell-based or functional assay; remark: listed apart in the source
[16] = target: T3, endogenous cell surface human MSLN; assay: flow cytometry, AsPC-1 cells
[17] = target: T3, endogenous cell surface human MSLN; assay: flow cytometry, OVCAR-3 cells
[18] = target: T1, hMSLN-His-Avi; assay: SPR, hMSLN-His-Avi immobilised
[19] = target: T1, hMSLN-His-Avi; assay: SPR, hMSLN-His-Avi in solution
[20] = target: T3, endogenous cell surface human MSLN; assay: flow cytometry, NCI-H226 cells; remark: listed apart in the source
[21] = target: T4, cMSLN-His-Avi; assay: SPR steady state, antigen immobilised ~50 RU
Protocol: The association time was 1000 sec to steady state and the dissociation time was 30 sec. Running buffer was HBS-EP (GE Healthcare BR100188). Flow cells were regenerated by injecting Glycine-HCl pH1.5 at a flow rate of 30 μl/min for 30 seconds. Data were analysed by double referencing against a flow cell which was intentionally left blank (no antigen coating). Steady state affinity model was used to analyse kinetic data using the BiaEvaluation software version 3.2.

[22] = target: T6, hCD137-mFc-Avi (human; mouse, UniProt Q07011 24-186, one biotin on each Avi tag in the biotinylated form); assay: SPR, mAb2 captured by anti-human Fab, hCD137-mFc-Avi in solution
T6 construct: also called human dimeric CD137; human CD137-mFc-Avi
Protocol: A Biacore CM5 chip was coated with anti-human Fab using a Human Fab Capture Kit (GE Healthcare 28958325) according to manufacturer's conditions, to a surface density of approximately 9000 RU. […] The association time was 5 min and the dissociation time was 5 min. Running buffer was HBS-EP. Flow cells were regenerated by injecting two repeat injections of 10 mM glycine-HCl at pH 2.1 at a flow rate of 30 μl/min for 30 seconds. Data analysis was performed as described in earlier examples (see e.g. Example 7.1).

[23] = target: T1, hMSLN-His-Avi; assay: SPR, hMSLN-His-Avi immobilised ~100 RU, mAb2 injected; immobilised human MSLN (antigen capture), not MSLN in solution
Protocol: 7.1 Binding of CD137/MSLN mAb2 to Human MSLN Under Avid Conditions—Antigen Capture Method Binding of all mAb^2 to MSLN immobilised on a BIAcore chip was tested to determine the binding affinity to human MSLN under avid conditions, where a high concentration of immobilised antigen is available to allow the antibody to bind avidly. […] The association time was 5 min and the dissociation time was 10 min. Running buffer was HBS-EP (GE Healthcare BR100188). Flow cells were regenerated by injecting Glycine-HCl pH1.5 at a flow rate of 30 μl/min for 30 seconds. Data were analysed by double referencing against a flow cell which was intentionally left blank (no antigen coating). The binding kinetics were fitted with a 1:1 Langmuir model to generate binding association (k_a) and dissociation (k_d) rates. Equilibrium binding constants (K_D) were calculated by dividing the dissociation rate by the association rate for each sample. Data analysis was performed with BiaEvaluation software version 3.2.

T2 sequence (Q07011 24-255): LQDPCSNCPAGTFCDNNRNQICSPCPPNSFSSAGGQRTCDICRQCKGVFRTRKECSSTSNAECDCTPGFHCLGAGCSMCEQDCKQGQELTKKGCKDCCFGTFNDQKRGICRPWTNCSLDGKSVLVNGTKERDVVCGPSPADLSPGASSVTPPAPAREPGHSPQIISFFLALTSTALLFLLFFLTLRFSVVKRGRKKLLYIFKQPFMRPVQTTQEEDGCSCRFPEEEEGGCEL
T1 sequence (Q13421 other isoform, or with tags, fused parts or gaps): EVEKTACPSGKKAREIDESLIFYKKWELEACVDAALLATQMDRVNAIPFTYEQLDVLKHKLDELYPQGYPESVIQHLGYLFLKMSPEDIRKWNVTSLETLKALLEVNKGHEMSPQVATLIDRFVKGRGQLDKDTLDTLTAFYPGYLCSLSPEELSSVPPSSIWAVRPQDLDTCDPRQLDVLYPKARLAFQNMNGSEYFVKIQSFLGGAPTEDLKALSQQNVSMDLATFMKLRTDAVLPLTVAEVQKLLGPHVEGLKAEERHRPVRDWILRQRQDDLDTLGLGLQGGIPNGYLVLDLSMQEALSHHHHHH
T3 sequence (Q13421 other isoform, or with tags, fused parts or gaps limits assumed): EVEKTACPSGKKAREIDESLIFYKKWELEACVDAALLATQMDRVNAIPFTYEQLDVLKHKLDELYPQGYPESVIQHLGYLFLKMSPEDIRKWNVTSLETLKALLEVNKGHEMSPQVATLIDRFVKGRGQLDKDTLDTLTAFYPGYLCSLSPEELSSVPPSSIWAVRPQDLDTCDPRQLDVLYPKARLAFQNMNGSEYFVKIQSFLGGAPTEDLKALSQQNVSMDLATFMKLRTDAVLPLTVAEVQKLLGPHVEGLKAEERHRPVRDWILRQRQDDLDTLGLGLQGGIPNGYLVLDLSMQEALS
T6 sequence (Q07011 24-186): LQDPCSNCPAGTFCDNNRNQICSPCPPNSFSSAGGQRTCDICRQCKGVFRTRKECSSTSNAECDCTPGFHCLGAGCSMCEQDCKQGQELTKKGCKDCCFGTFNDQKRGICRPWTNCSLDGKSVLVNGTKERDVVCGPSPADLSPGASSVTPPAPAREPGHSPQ

B1: FS22-172-003-AA/FS28-024-060 (bispecific antibody, human IgG1, kappa, L234A L235A, V domains shown)
VH: EVQLLESGGGLVQPGGSLRLSCAASGFTLSYSSMSWVRQAPGKGLEWVSFITPSTGYTHYADSVKGRFTISRDNSKNTLYLQMNSLRAEDTAVYYCARRALWFDYWGQGTLVTVSS
VL: EIVLTQSPGTLSLSPGERATLSCRASQSVSSSYLAWYQQKPGQAPRLLIYGASSRATGIPDRFSGSGSGTDFTLTISRLEPEDFAVYYCQQASSYPLTFGQGTKVEIKR
notes: IgG1 mAb^2 with LALA
KD ratio in solution/immobilised human MSLN [1]: 33
Emax (IL-2 pg/ml), NCI-H226 co-culture, Donor A [2]: 1400 pg/mL
Emax (IL-2 pg/ml), NCI-H226 co-culture, Donor B [2]: 1940 pg/mL
IL-2 release EC50, NCI-H226 co-culture, Donor A [2]: 0.04 nM
IL-2 release EC50, NCI-H226 co-culture, Donor B [2]: 0.06 nM
EC50 [3]: 0.695 nM
Emax (MFI) [3]: 840000 MFI
fold less cross reactive compared to human MSLN [4]: 54 fold
EC50 [5]: 4.69 nM
Emax (MFI) [5]: 930000 MFI
Kd [6]: 0.13 nM
Kd [7]: 230 nM
Kd [8]: 4.27 nM

B2: FS22m-063-AA/FS28m-228 (bispecific antibody, human IgG1, kappa, L234A L235A, V domains shown)
VH: EVQLLESGGGLVQPGGSLRLSCAASGFTFSTYFMVWVRQAPGKGLEWVSMISPKSSNTYYADSVKGRFTISRDNSKNTLYLQMNSLRAEDTAVYYCARWFTPARFDYWGQGTLVTVSS
VL: B1 VL with A92P, S93F, S94P, Y95F, P96S, L97F
notes: IgG1 mAb^2 with LALA; also called anti-mouse CD137/MSLN mAb^2
ratio of KD in solution/immobilised [9]: 31.9
Kd [10]: 7.9 nM
Kd [11]: 252 nM

B3: FS22-172-003-AA/FS28-256-271 (bispecific antibody, human IgG1, kappa, L234A L235A, V domains shown)
VH: EVQLLESGGGLVQPGGSLRLSCAASGFTFTHTYMSWVRQAPGKGLEWVSAISPTYSTTNYADSVKGRFTISRDNNKNTLYLQMNSLRAEDTAVYYCARYNAYHAALDYWGQGTLVTVSS
VL: B1 VL with A92T, S93V, S94P, L97Y
notes: IgG1 mAb^2 with LALA; also called anti-human CD137/MSLN mAb^2
ratio of KD in solution/immobilised [12]: 3
KD ratio in solution/immobilised human MSLN [1]: 3
fold change of IL-2 EC50 with soluble MSLN against none, NCI-H226 co-culture [13]: 3 fold
IL-2 release EC50, NCI-H226 co-culture, +2 nM sMSLN [14]: 0.139 nM
IL-2 release EC50, NCI-H226 co-culture, +20 nM sMSLN [14]: 0.353 nM
IL-2 release EC50, NCI-H226 co-culture, no sMSLN [14]: 0.117 nM
IFNγ production EC50 (96 h), AsPC-1 co-culture, Donor G [15]: 0.147 nM
IFNγ production EC50 (96 h), AsPC-1 co-culture, Donor H [15]: 0.164 nM
IFNγ production EC50 (96 h), AsPC-1 co-culture, Donor J [15]: 0.344 nM
IFNγ production EC50 (96 h), NCI-H226 co-culture, Donor G [15]: 0.0332 nM
IFNγ production EC50 (96 h), NCI-H226 co-culture, Donor H [15]: 0.0732 nM
IFNγ production EC50 (96 h), OVCAR-3 co-culture, Donor H [15]: 0.084 nM
IL-2 production EC50 (72 h), AsPC-1 co-culture, Donor C [15]: 0.778 nM
IL-2 production EC50 (72 h), AsPC-1 co-culture, Donor D [15]: 0.841 nM
IL-2 production EC50 (72 h), NCI-H226 co-culture, Donor C [15]: 0.111 nM
IL-2 production EC50 (72 h), NCI-H226 co-culture, Donor D [15]: 0.112 nM
IL-2 production EC50 (72 h), NCI-H226 co-culture, Donor E [15]: 0.0722 nM
IL-2 production EC50 (72 h), NCI-H226 co-culture, Donor F [15]: 0.0723 nM
IL-2 production EC50 (72 h), OVCAR-3 co-culture, Donor E [15]: 0.145 nM
IL-2 production EC50 (72 h), OVCAR-3 co-culture, Donor F [15]: 0.0693 nM
EC50 [16]: 0.293 nM
EC50 [17]: 0.306 nM
Kd [18]: 5.9 nM
Kd [19]: 18.2 nM
EC50 [20]: 0.304 nM
fold difference of binding to cMSLN against hMSLN [21]: ≤ 3 fold
Kd [8]: 18.2 nM
Kd [22]: 1.26 nM
Kd [23]: 5.9 nM

B4: FS22m-063-AA/FS28m-228-010 (bispecific antibody, human IgG1, kappa, L234A L235A, V domains shown)
VH: B2 VH with W99Y, F100H, T101I, P102S, A103P
VL: B1 VL with A92P, S93F, S94P, Y95F, P96S, L97F
notes: IgG1 mAb^2 with LALA
ratio of KD in solution/immobilised [9]: 23.2
Kd [10]: 2.6 nM
Kd [11]: 60.2 nM
